Where “and” joins values, the source holds several entries; their conditions need not be identical. Identical values can stand only once. One block for each binder: values may come before it.
Assays:
[1] = molecular target: PGL-3(D1-D2) (C. elegans) (UniProt G5EBV6)
[2] = molecular target: PGL-3(D1-D2) (C. elegans) (UniProt G5EBV6); remark: listed apart in the source
[3] = molecular target: PGL-3(D1-D2) (C. elegans) (UniProt G5EBV6); remark: listed apart in the source
[4] = molecular target: T1, PGL-3(D1) (C. elegans, trace-labelled with DyLight 488 (NHS ester) in the FA crosslinking; biotinylated with NHS-PEG12-Biotin when immobilised in BLI); test: BLI
T1 chain: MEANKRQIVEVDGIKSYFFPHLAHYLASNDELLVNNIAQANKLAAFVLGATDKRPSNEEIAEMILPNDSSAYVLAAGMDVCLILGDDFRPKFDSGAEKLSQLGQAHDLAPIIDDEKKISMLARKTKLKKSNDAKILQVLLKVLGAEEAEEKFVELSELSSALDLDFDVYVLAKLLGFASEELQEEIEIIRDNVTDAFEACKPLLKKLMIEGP

[5] = molecular target: T1, PGL-3(D1); test: BLI; biotinylated D1 on streptavidin tips, RGG peptide in solution; 125 mM NaCl, 0.01 mg/ml BSA, 0.02% Tween-20, 25 mM HEPES pH 7.5; 1:1 binding model; Octet Red96
[6] = molecular target: T2, PGL-3 RGG region peptide (native) (Caenorhabditis elegans, UniProt G5EBV6 623-693); test: BLI; RNA on tip, RGG peptide in solution; 1:1 fit; KD ~2-fold higher than RGG:D1, value not given; BLI: 25 mM HEPES pH 7.5, 125 mM NaCl, 0.01 mg/ml BSA, 0.02% Tween-20, temperature not stated; condensate assays at 125 mM NaCl; settings: tags: none; unlabeled in BLI; label: 5' biotin; single strand
T2 sequence: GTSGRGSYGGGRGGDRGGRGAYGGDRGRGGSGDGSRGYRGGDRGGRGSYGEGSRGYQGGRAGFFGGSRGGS

[7] = molecular target: the molecule itself; test: mass photometry; unlabeled D1-D2 at 50 to 100 nM in 125 mM NaCl, 25 mM HEPES pH 7.5, TwoMP (Refeyn)
[8] = molecular target: the molecule itself; test: cross-linking; XL-MS: 7.5 uM full-length PGL-3, 2 mM DSBU, 1 h room temperature, 25 mM HEPES pH 7.5, 125 mM NaCl (condensing) or 500 mM NaCl (non-condensing); trypsin digest, LC-MS/MS, Scout search

- partition coefficient of the RGG peptide in D1-D2 condensates (5 uM each, in trans) [1]: 1.3
- fraction of D1-D2 in the pellet (dense phase) with equimolar RGG peptide against buffer control [2]: 15%
- viscosity of D1-D2 condensates formed with equimolar RGG peptide against buffer (embedded beads) [3]: 1.25 fold
- Kd [4]: 1.63 µM
- fold faster koff than RGG:poly(U) RNA [5]: 10 fold
- fold faster kon than RGG:poly(U) RNA [5]: 20 fold
- fold lower KD than RGG:poly(U) RNA [5]: 2 fold
B1: PGL-3(RGG) synthetic peptide spanning the RGG region (peptide)
chain: T2 sequence
modifications: trace-labelled with Alexa Fluor 647 (NHS ester) in the FA crosslinking and partitioning; biotinylated with NHS-PEG12-Biotin when immobilised in BLI

B2: poly(U) 30-nt RNA (ssRNA)
RNA: UUUUUUUUUUUUUUUUUUUUUUUUUUUUUU
- binding result [6]: binds

B3: PGL-3(D1-D2) (domain or fragment, C. elegans, UniProt G5EBV6 1-447, looked up)
chain: MEANKRQIVEVDGIKSYFFPHLAHYLASNDELLVNNIAQANKLAAFVLGATDKRPSNEEIAEMILPNDSSAYVLAAGMDVCLILGDDFRPKFDSGAEKLSQLGQAHDLAPIIDDEKKISMLARKTKLKKSNDAKILQVLLKVLGAEEAEEKFVELSELSSALDLDFDVYVLAKLLGFASEELQEEIEIIRDNVTDAFEACKPLLKKLMIEGPKIDSVDPFTQLLLTPQEESIEKAVSHIVARFEEASAVEDDESLVLKSQLGYQLIFLVVRSLADGKRDASRTIQSLMPSSVRAEVFPGLQRSVFKSAVFLASHIIQVFLGSMKSFEDWAFVGLAEDLESTWRRRAIAELLKKFRISVLEQCFSQPIPLLPQSELNNETVIENVNNALQFALWITEFYGSESEKKSLNQLQFLSPKSKNLLVDSFKKFAQGLDSKDHVNRIIESLEK
modifications: unlabeled in mass photometry; trace-labelled with DyLight 488 (partitioning) or Alexa Fluor 647 (pelleting) by NHS ester
notes: PGL-3, C. elegans, the first 447 amino acids, which span the folded domains D1 and D2; also called D1-D2 domain; not shown: 6xHis-MBP-6xHis, N-terminal, cleaved
- stoichiometry N [7]: 2 and 4 and 6

B4: full-length, untagged PGL-3 (natural protein, C. elegans, UniProt G5EBV6 1-693, looked up)
chain: MEANKRQIVEVDGIKSYFFPHLAHYLASNDELLVNNIAQANKLAAFVLGATDKRPSNEEIAEMILPNDSSAYVLAAGMDVCLILGDDFRPKFDSGAEKLSQLGQAHDLAPIIDDEKKISMLARKTKLKKSNDAKILQVLLKVLGAEEAEEKFVELSELSSALDLDFDVYVLAKLLGFASEELQEEIEIIRDNVTDAFEACKPLLKKLMIEGPKIDSVDPFTQLLLTPQEESIEKAVSHIVARFEEASAVEDDESLVLKSQLGYQLIFLVVRSLADGKRDASRTIQSLMPSSVRAEVFPGLQRSVFKSAVFLASHIIQVFLGSMKSFEDWAFVGLAEDLESTWRRRAIAELLKKFRISVLEQCFSQPIPLLPQSELNNETVIENVNNALQFALWITEFYGSESEKKSLNQLQFLSPKSKNLLVDSFKKFAQGLDSKDHVNRIIESLEKSSSSEPSATAKQTTTSNGPTTVSTAAQVVTVEKMPFSRQTIPCEGTDLANVLNSAKIIGESVTVAAHDVIPEKLNAEKNDNTPSTASPVQFSSDGWDSPTKSVALPPKISTLEEEQEEDTTITKVSPQPQERTGTAWGSGDATPVPLATPVNEYKVSGFGAAPVASGFGQFASSNGTSGRGSYGGGRGGDRGGRGAYGGDRGRGGSGDGSRGYRGGDRGGRGSYGEGSRGYQGGRAGFFGGSRGGS
notes: PGL-3, C. elegans P granule protein, full length (D1, D2, internal IDR, C-terminal RGG region; residues to 693); also called PGL-3(FL); FL; not shown: 6xHis-MBP-6xHis, N-terminal, cleaved
- binding result [8]: binds
